System: MS2 coat protein
Assay: apparent KD of MS2 coat protein; designed switch direction (-1 OFF switch, 1 ON switch): -1; higher = weaker reporter binding
Outline: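 Three titration conditions were used: no input, 200 uM small-molecule ligand, and an oligonucleotide input. In each, SNAP-549-labelled MS2 coat protein was raised from 0.7 or 1.5 nM, doubling, to 3 µM over designed RNA switches transcribed on Illumina chips by stalled E. coli RNA polymerase. Curve fits of normalised cluster fluorescence gave values whose per-design median over clusters is the apparent KD.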

[1] = Eterna round: R95, input ligand: FMN 200 uM
[2] = Eterna round: R95, input ligand: microRNA oligo, concentration not stated
[3] = Eterna round: R95, input ligand: none
[4] = input ligand: microRNA oligo, concentration not stated

| Sequence | apparent KD of MS2 coat protein [1] [nM] | apparent KD of MS2 coat protein [2] [nM] | apparent KD of MS2 coat protein [3] [nM] | apparent KD of MS2 coat protein [4] [nM] | apparent KD of MS2 coat protein (input ligand: FMN 200 uM) [nM] | apparent KD of MS2 coat protein (input ligand: none) [nM] |
| --- | --- | --- | --- | --- | --- | --- |
| GGUACUAACACGAUAGUGUUAGUACAAUAAGCUUGUGUUACAUGAGGAUCACCCAUGUCCUCAUAAGCUCGUCUUAU [Mat - Sensor v3 - Turn-off var 2 - D56] (puzzle: Sensor v3, turn-off variant 2) | 117 | 102 | 108 | – | – | – |
| GGUACUCAAAGAGUACCAAUACGAACAUGAGGAUCACCCAUGUAGGAUAUGCUACUCAAAGAGUAGCAGAAGGACGUGUACCUU [Far Half Aptamer v1] (Eterna round: R96, puzzle: Exclusion NG 3) | – | – | – | 18.5 | – | – |
| GGUAGAGUGGCAGGAUAUCCGUCUGUUUCAGUCGGAGAAGGGCCACAGUCACUGGGUCCAAAUAUGGGUGACCAUGUAUCUACC [pwkr exNG1 F6.4] (Eterna round: R96, puzzle: Exclusion NG 1) | – | – | – | 28.4 | 22 | 34.8 |
| GGUCAGACGGUAGGAUAUCUAUAUCGAGUGACCCUUUCAUAACAUGAGGAUCACCCAUGUCGGUGGGAGAAGGGCCGUACGGCG [salish99_ExNG02_R04_007] (Eterna round: R96, puzzle: Exclusion NG 2) | – | – | – | 31.6 | 62.5 | 42.2 |
| GGUCAGAUGGUAGGAUAUCCAUAUCGAGUGACCUUUUCAUAACAUGAGGAUCACCCAUGUCGGUGGGAGAAGGGCCGUACGGCG [salish99_ExNG02_R04_017] (Eterna round: R96, puzzle: Exclusion NG 2) | – | – | – | 79 | 120 | 112 |
| GGUCCUGAUGAUUUCCUAUACAUGAGGAUCACCCAUGUAUGUGUAUUUUGUUUUUCGCUUUUUGGUCGUCAAUAAUA [Mod-Hoo-honey-2] (Eterna round: R97, puzzle: Sensor, turn-off variant 1) | – | – | – | – | 32.6 | 33.4 |
| GGUGAGCGAGGAUAUACAUGAGGAUCACCCAUGUGACGCUGUCCUUGGAAGAACCUCUGUAGAAGGCGCGGAAU [Veisrien] (Eterna round: R97, puzzle: Exclusion 3) | – | – | – | – | 23.5 | 162 |
| GGUGCACAUGAGGAUCACCCAUGUCAGGAUAUGUUACCACGUUACGAUCGAGUGACGAGCAGAAGGGACUGCAU [Eternabot (L2) Solution 68] (Eterna round: R97, puzzle: Exclusion 1) | – | – | – | – | 39.4 | 29.6 |
| GGUGCGUAUGUGAGGAUAUGCUGGUCCUUGGCUCGGCAGAAGGCACAUGAGGAUCACCCAUGUGGUGUCGUACA [salish99_Bmod_ex4_072] (puzzle: Brourd's mod of Exclusion 4) | – | 73.5 | – | – | – | – |
| GGUGGACAUGAGGAUCACCCAUGUGAGGAUAUCGGCCGGUUCGUGGUGGCUGGCUUCUCGAGAAGGCGCAUAGU [Exclusion 1 V74] (puzzle: Exclusion 1) | – | 46.4 | – | – | – | – |
| GGUGGACAUGAGGAUCACCCAUGUGAGGAUAUCGGCUGGCUACUGGCUGACGGCUGCUCGAGAAGGCGCAUUGU [Exclusion 1 V87] (puzzle: Exclusion 1) | – | 38.4 | – | – | – | – |
| GGUGGGCUAGGAUAUGCUUUGGGUGGGCAUUCCUUCGAUAAACUUGAGGAUCACCCAAGUAGAAGGAGCUUGCC [salish99_ex2_r4_023] (Eterna round: R97, puzzle: Exclusion 2) | – | – | – | – | 21.8 | 35.4 |
| GGUGGUAUUGUUAGGAUAUGGCAUGCCCGAGGCGUCUAGAAGGGACAUGAGGAUCACCCAUGUCUAGAAUUAAU [Eternabot (L2) Solution 53] (Eterna round: R97, puzzle: Brourd's mod of Exclusion 4) | – | – | – | – | 41.2 | 45.5 |
| GGUGUCUUCAGAAGACAUGAGGAUCACCCAUGUAAAUGCACUGAGGAUAUACGGGCGACCGGCGUGUAGAAGGUAGAGCACGAA [Bivezale] (Eterna round: R96, puzzle: Exclusion NG 3) | – | – | – | 8.37 | 13.7 | 17.5 |
| GGUUAGGCAGGAUAUACCCACAGUGUCUGUAGAAUCGCAAGACAUGAGGAUCACCCAUGUAGAAGGGCCGACCG [Eternabot (L1) Solution 1] (Eterna round: R97, puzzle: Exclusion 2) | – | – | – | – | 184 | 273 |
| GGUUGACAUGAGGAUCACCCAUGUGAGGAUAUGCGAGAGAAAAAAGUGAGGAAGAAACGCAGAAGGCGCUGUCG [salish99-ex1_r3_010] (puzzle: Exclusion 1) | 59.3 | 163 | 133 | – | – | – |
| GGUUGGCGAGGAUAUACAUGAGGAUCACCCAUGUGAGAAAAUAAGUGAGGAAAGAAAAGUAGAAGGCGCUGACG [Mat - Exclusion 3 - Mod of Salish D53] (puzzle: Exclusion 3) | 570 | 55.8 | 37.1 | – | – | – |

| Sequence | apparent KD of MS2 coat protein [1] [nM] | apparent KD of MS2 coat protein [2] [nM] | apparent KD of MS2 coat protein [3] [nM] | apparent KD of MS2 coat protein [4] [nM] | apparent KD of MS2 coat protein (input ligand: FMN 200 uM) [nM] | apparent KD of MS2 coat protein (input ligand: none) [nM] |
| --- | --- | --- | --- | --- | --- | --- |
| GGUUGGCGAGGAUAUACAUGAGGAUCACCCAUGUGAGAGAAAAACGUGAGGAAGAAAAGUAGAAGGCGCUGACG [salish99_ex3_r3_025] (puzzle: Exclusion 3) | 36.4 | 81.6 | 65.6 | – | – | – |
| GGUUGGCGAGGAUAUACAUGAGGAUCACCCAUGUGAGAGAAAGAAGUGAGGAAGAAAAGUAGAAGGCGUUGACG [salish99_ex3_r3_053] (puzzle: Exclusion 3) | 50.6 | 55.4 | 71.7 | – | – | – |
| GGUUGGCGAGGAUAUACAUGAGGAUCACCCAUGUGAGAGAAGAAAGUGAGAACGAAAAGUAGAAGGCGCUGACG [salish99_ex3_r3_060] (puzzle: Exclusion 3) | 2.08 | 43.8 | 90.2 | – | – | – |
| GGUUGGCGAGGAUAUACAUGAGGAUCACCCAUGUGCGAGAAAAAAGUGAGGAAGAAAAGUAGAAGGCGCUGACG [salish99_ex3_r3_018] (puzzle: Exclusion 3) | 238 | 49.5 | 58.2 | – | – | – |
| GGUUGGCGAGGAUAUACAUGAGGAUCACCCAUGUGGUCCUGAAAAAAAAAAAACCUUUGUAGAAGGCGCGGGUC [salish99_ex3_r4_035] (Eterna round: R97, puzzle: Exclusion 3) | – | – | – | – | 256 | 150 |
| GGUUGGCGAGGAUAUACAUGAGGAUCACCCAUGUGGUCCUGUGGCUAAAAAAACCUUUGUAGAAGGCGCGGGUC [salish99_ex3_r4_030] (Eterna round: R97, puzzle: Exclusion 3) | – | – | – | – | 173 | 149 |
| GGUUGGCGAGGAUAUACAUGAGGAUCACCCAUGUGGUCCUGUGGCUGAUCAAGCCUAUGUAGAAGGCGCAAAUC [salish99_ex3_r4_012] (Eterna round: R97, puzzle: Exclusion 3) | – | – | – | – | 137 | 257 |
| GGUUUGGGAGGAUAUGGUUUUAAUAACAUGAGGAUCACCCAUGUAAAUAGAUCCUCAAGGCCAGAAGGCUCAAACC [-26.1, -25.22 kcal, A 33%] (Eterna round: R97, puzzle: Exclusion 5) | – | – | – | – | 212 | 1980 |
| GGUUUGGGAGGAUAUGGUUUUAAUAACAUGAGGAUCACCCAUGUAAAUAGAUCCUCGAGGCCAGAAGGCUCGGGCC [-24.9, -23.72 kcal, A 28%] (Eterna round: R97, puzzle: Exclusion 5) | – | – | – | – | 405 | 85.7 |
| GUAAACGAAGAGGAUAUUUGAUAUCAUAGCUUCAAAGAAGGCUUCACAUGAGGAUCACCCAUGUGAUCUUCAAG [Mat - Exclusion 6 - JL Mod - D21] (Eterna round: R97, puzzle: Exclusion 6) | – | – | – | – | 199 | 34.8 |
| GUAAACGAUGAGGAUAUAUGAUAUCAAAGCAUCAUAGAAGGCAUCACAUGAGGAUCACCCAUGUGAUCUUCUUG [Mat - Exclusion 6 - JL Mod - D30] (Eterna round: R97, puzzle: Exclusion 6) | – | – | – | – | 135 | 31.3 |
| GUAAACGCAGAGGAUAUUUCAGAUCCUAGCUGCAAAGAAGGCUGCACAUGAGGAUCACCCAUGUGGUCCUGAAG [Mat - Exclusion 6 - Eli Mod - D2] (Eterna round: R97, puzzle: Exclusion 6) | – | – | – | – | 191 | 68.2 |
| GUAAAUCAUGUAGGAUAUGCAUAGCAAAGCUAUGCAGAAGGACAUGAGGAUCACCCAUGUCAUUCCGUCUGGAGACAGACGGGA [Mat - Exclusion NG 1 - Mod of JL - D58] (Eterna round: R96, puzzle: Exclusion NG 1) | – | – | – | 22.5 | 270 | 36.7 |
| GUAAUUAAUGUAGGAUAUGCAAGGCGAACCUAAGCAGAAGGACAUGAGGAUCACCCAUGUAUUGCGGUCUGCGUACAGAUCGCU [salish99_ExNG1_r4_008] (Eterna round: R96, puzzle: Exclusion NG 1) | – | – | – | 18.5 | 45.7 | 19.9 |
| GUAAUUAUAUAGGAUAUCGAACUUAUAAUUUAACGAGAAGGAUGAACAUGAGGAUCACCCAUGUGGUAUCAUGG [JL-ex6-3.07] (puzzle: Exclusion 6) | 131 | 207 | 284 | – | – | – |
| GUACAUUUAGGAUAUACGGCAGCCAAUGCAAGGGUUCUAUAACAUGAGGAUCACCCAUGUAGAAGGAGAGGGCG [Eternabot (L2) Solution 21] (Eterna round: R97, puzzle: Exclusion 2) | – | – | – | – | 70.8 | 55.2 |

— the supplement of paper PMC9170038
